Experimental data published in patent publication US20240092899A1 (CHIA TAI TIANQING PHARMACEUTICAL GROUP, published 2024).
Residue numbers refer to the chain shown, from its start. Numbers in names are those of the source. One block for each binder: values may come before it.

How the values were obtained:
[1] = target: heavy chain HZ5G11VH-CH1-IgG1; assay: co-expression in ExpiCHO-S, protein A purification, non-reducing SDS-PAGE
Experimental: (§1) After transfection, the cells were placed in ExpiCHO™ medium (manufacturer: Thermo, Cat No. A2910001), and expressed and cultured at 32° C. with 5% CO₂ at 130 rpm. On day 10, the cell supernatant was collected, and the target protein was purified by protein A affinity chromatography using AKTA Pure 25 L system from GE and MabSelect SuRe LX packing. After elution, the concentration of the eluted protein was measured using NanoDrop Lite (Thermo Fisher Scientific). The purity of the eluted protein was measured by SEC-HPLC, and the protein purity of the sample used for the test was not lower than 80%. A total amount of […] of protein was taken from each sample and subjected to non-reducing SDS-PAGE electrophoresis. The protein was stained with Coomassie brilliant blue, and the electrophoresis results were observed.
(§2) After the co-expression and purification of HZ5G11VH-Cα-IgG1 and HZ14A9VL-IgK as well as HZ14A9VH-Cα-IgG1 and HZ5G11VL-IgK, various products were generated. […] The results above indicate that there is some interaction between the CL domain and MHCICα, thereby promoting the production of light and heavy-mispaired products.

[2] = target: T1, heavy chain HZ5G11VH-Cα-IgG1; assay: as above
T1 construct: HZ5G11 heavy chain whose CH1 is replaced by MHCICα
Experimental: as §1, §2

[3] = target: heavy chain HZ14A9VH-CH1-IgG1; assay: co-expression in ExpiCHO-S, protein A purification, non-reducing SDS-PAGE, Coomassie stain
Experimental: as §1, §2

[4] = target: T2, human CD47 (human, UniProt Q08722 19-139); assay: SPR (Biacore 8K), antibody captured on chip, antigen injected
T2 construct: Bought antigen; also called ACROBiosystems Cat. No. CD7-H5227
Description: (§3) The affinity properties of the HZ5G11 monoclonal antibody, the HZ14A9 monoclonal antibody, MHL147-3322-IgG1-wt and MHL147-3322-IgG1-F118A bispecific antibodies were characterized by Biacore. The HZ5G11 monoclonal antibody, the HZ14A9 monoclonal antibody, MHL147-3322-IgG1-wt and MHL147-3322-IgG1-F118A bispecific antibodies were respectively immobilized onto a sensing chip by a capture method, and a human PDL1 (manufacturer: ACROBiosystems, Cat. No. PD1-H52H3) or human CD47 (manufacturer: ACROBiosystems, Cat. No. CD7-H5227) protein antigen solution with a certain concentration gradient was injected into the sample. Association/dissociation curves were acquired in real time by Biacore 8K Control Software 3.0, and data analysis was performed by Biacore Insight Evaluation Software 3.0. An association rate constant Ka, a dissociation rate constant Kd, and an equilibrium constant KD were obtained.

[5] = target: T3, human PDL1 (human, UniProt Q9NZQ7 19-238); assay: as above
T3 construct: Bought antigen; also called ACROBiosystems Cat. No. PD1-H52H3
Description: as §3

[6] = target: heavy chain HZ14A9VH-CH1-IgG1; assay: co-expression in ExpiCHO-S, protein A purification, non-reducing SDS-PAGE
Experimental: as §1, §2

[7] = target: heavy chain HZ14A9VH-Cα-IgG1; assay: as above
Experimental: as §1, §2

[8] = target: heavy chain HZ5G11VH-CH1-IgG1; assay: co-expression in ExpiCHO-S, protein A purification, non-reducing SDS-PAGE, Coomassie stain
Experimental: as §1, §2

[9] = target: heavy chain HZ14A9VH-Cα-IgG1; assay: as above

T3 sequence (Q9NZQ7 19-238 limits assumed): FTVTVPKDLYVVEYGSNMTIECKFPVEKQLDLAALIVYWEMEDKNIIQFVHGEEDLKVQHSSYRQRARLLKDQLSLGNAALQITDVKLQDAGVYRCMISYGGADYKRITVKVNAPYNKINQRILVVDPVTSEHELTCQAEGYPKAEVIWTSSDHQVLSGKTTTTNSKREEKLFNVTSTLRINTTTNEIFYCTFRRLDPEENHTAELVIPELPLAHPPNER
T2 sequence (Q08722 19-139 limits assumed): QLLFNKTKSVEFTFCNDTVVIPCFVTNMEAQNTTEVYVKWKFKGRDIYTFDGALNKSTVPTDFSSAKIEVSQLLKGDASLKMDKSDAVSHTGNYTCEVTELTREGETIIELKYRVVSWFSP

binding result [1]: binds
binding result [2]: binds
binding result [3]: binds
B1: light chain HZ14A9VL-IgK (other)
light: DIQMTQSPSSLSASVGDRVTITCKASENVVSYVSWYQQKPGKAPKLLIYGASNRYTGVPSRFIGSGSSTDFTLTISSLQPEDFATYYCGQSYSYPLTFGQGTKLEIKRTVAAPSVFIFPPSDEQLKSGTASVVCLLNNFYPREAKVQWKVDNALQSGNSQESVTEQDSKDSTYSLSSTLTLSKADYEKHKVYACEVTHQGLSSPVTKSFNRGEC

Kd [4]: 5.26 nM
koff [4]: 0.0249 s⁻¹
kon [4]: 4.74e+06 M⁻¹ s⁻¹
Kd [5]: 0.384 nM
koff [5]: 0.000606 s⁻¹
kon [5]: 1.58e+06 M⁻¹ s⁻¹
B3: MHL147-3322-IgG1-F118A (bispecific antibody)
heavy 1: not shown
light 1: DIQMTQSPSSLSASVGDRVTITCKASQSVSNDVAWYQQKPGKAPKLLIYYAANRYTGVPDRFSGSGYGTDFTFTISSLQPEDIATYFCQQDYTSPYTFGQGTKLEIKIQRTPKIQVYSCHPAENGKSNFLNCYVSGFHPSDIEVDLLKNGERIEKVEHSDLSFSKDWSFYLLYYTRFTPTEKDEYACRVNHVTLSQPKIVKWDRGP
heavy 2: not shown
light 2: B1 light with F118A
notes: IgG1 bispecific with LALA (L234A+L235A) and KIH mutations; The PD-L1 arm is modified with MHC-I elements; the CD47 arm is a Fab whose kappa CL carries F118A (EU numbering); also called MHL147-3322-F118A; anti-PDL1*CD47 bispecific antibody

binding result [9]: binds
B6: HZ5G11VL-IgK-F118I (other)
light chain: DIQMTQSPSSLSASVGDRVTITCKASQSVSNDVAWYQQKPGKAPKLLIYYAANRYTGVPDRFSGSGYGTDFTFTISSLQPEDIATYFCQQDYTSPYTFGQGTKLEIKRTVAAPSVFIIPPSDEQLKSGTASVVCLLNNFYPREAKVQWKVDNALQSGNSQESVTEQDSKDSTYSLSSTLTLSKADYEKHKVYACEVTHQGLSSPVTKSFNRGEC
notes: Variant of m12; also called light chain HZ5G11VL-IgK with F118I (EU numbering) in the CL domain

binding result [9]: binds
B7: HZ5G11VL-IgK-F116A (other)
light chain: B6 light chain with F116A, I118F
notes: Variant of m12; also called light chain HZ5G11VL-IgK with F116A (EU numbering) in the CL domain

Kd [5]: 0.282 nM
koff [5]: 0.000427 s⁻¹
kon [5]: 1.51e+06 M⁻¹ s⁻¹
B9: HZ5G11 monoclonal antibody (antibody, V domains shown)
VH: QITLKESGPTLVKPTQTLTLTCTVSGFSLSTYGVHWIRQPPGKALEWLGVIWRGVTTDYNAAFMSRLTITKDNSKNQVVLTMNNMDPVDTATYYCARLGFYAMDYWGQGTLVTVSS
VL: DIQMTQSPSSLSASVGDRVTITCKASQSVSNDVAWYQQKPGKAPKLLIYYAANRYTGVPDRFSGSGYGTDFTFTISSLQPEDIATYFCQQDYTSPYTFGQGTKLEIKR
notes: Humanized IgG1 kappa antibody from a mouse hybridoma; also called monoclonal IgG1K antibody HZ5G11 targeting human PD-L1

Further lines, the binder ahead of its results:

B2: MHL147-3322-IgG1-wt (bispecific antibody)
heavy 1: not shown
light 1: B3 light 1
heavy 2: not shown
light 2: B1 light
notes: IgG1 bispecific with LALA (L234A+L235A) and KIH mutations; The PD-L1 arm is modified with MHC-I elements; the CD47 arm is a Fab with wild-type kappa CL; also called anti-PDL1*CD47 bispecific antibody
Kd [4]: 3.31 nM
koff [4]: 0.0124 s⁻¹
kon [4]: 3.75e+06 M⁻¹ s⁻¹
Kd [5]: 0.304 nM
koff [5]: 0.000562 s⁻¹
kon [5]: 1.85e+06 M⁻¹ s⁻¹

B4: light chain HZ5G11VL-IgK (other)
light: B6 light chain with I118F
binding result [6]: binds
binding result [7]: binds
binding result [8]: binds

B5: HZ5G11VL-IgK-S114A (other)
light chain: B6 light chain with S114A, I118F
notes: Variant of m12; also called light chain HZ5G11VL-IgK with S114A (EU numbering) in the CL domain
binding result [9]: binds

B8: light chain HZ5G11VL-Cβ (other)
light: B3 light 1
notes: HZ5G11 light chain whose CL is replaced by MHCICβ
binding result [6]: no binding

B10: HZ14A9 monoclonal antibody (antibody, V domains shown)
VH: QVQLVQSGAEVKKPGASVKVSCKVSGFNIEDDYIEWVRQAPGQGLEWMGRIDPANDKTKYAQKFQGRVTMTGDTSTNTVYMELSSLRSEDTAVYYCARPGLRRYYSMDYWGQGTLVTVSS
VL: DIQMTQSPSSLSASVGDRVTITCKASENVVSYVSWYQQKPGKAPKLLIYGASNRYTGVPSRFIGSGSSTDFTLTISSLQPEDFATYYCGQSYSYPLTFGQGTKLEIKR
notes: Humanized IgG1 kappa antibody from a mouse hybridoma; also called monoclonal IgG1K antibody HZ14A9 targeting human CD47
Kd [4]: 5.85 nM
koff [4]: 0.0143 s⁻¹
kon [4]: 2.45e+06 M⁻¹ s⁻¹

B11: light chain HZ14A9VL-Cβ (other)
light: DIQMTQSPSSLSASVGDRVTITCKASENVVSYVSWYQQKPGKAPKLLIYGASNRYTGVPSRFIGSGSSTDFTLTISSLQPEDFATYYCGQSYSYPLTFGQGTKLEIKIQRTPKIQVYSCHPAENGKSNFLNCYVSGFHPSDIEVDLLKNGERIEKVEHSDLSFSKDWSFYLLYYTRFTPTEKDEYACRVNHVTLSQPKIVKWDRGP
binding result [1]: no binding
